From patent publication US20180265573A1

Target: hemagglutinin of influenza A virus A/New Caledonia/20/99 (H1) (influenza A virus A/New Caledonia/20/99 (H1))

B1: monoclonal antibody GG3 (antibody, V domains shown)
VH: QIQLVQSGPELKKPGETVKISCKASGYTFTNYGMNWVKQAPGKGLKWMGWINIYSGESTYVDDFTGRFAFSLETSASTAYLQINNLKNEDMATYFCARSGDTMITAGRSFFAMDYWGQGTSVTVSS
VL: DIQMTQSPSSLSASLGERVSLTCRASQEISGYLSWLQQKPDGTIKRLIYAASTLDSGVPKRFSGSRSGSDYSLSISSLESEDFADYYCLQYANYPWSFGGGTKLEIK
  IC50 (read off the curve), plaque reduction neutralization assay: 6 µg/mL
